The values that follow come from patent US20210163606A1 (ATYR PHARMA, published 2021).

Test [1] concerns the target T1, cynomolgus monkey NRP2 on transfected Expi293 cells (cynomolgus monkey).
T1 construct: whole, on cells; Plasmid bought from Origene; transient transfection; also called Cyno NRP2
In words: flow cytometry on Cyno NRP2-transfected Expi293 cells. How it is done: Binding of a-NRP2 to cynomolgus monkey NRP2-transfected Expi293 cells. Cynomolgus monkey (cyno) NRP2-transfected Expi293 cells were collected by centrifugation at 300 g for 5 minutes, and washed twice by DPBS (with calcium and magnesium, ThermoFisher Cat #14040133).
Washed cells were added to a 96-well V-bottom plate (ThermoFisher Cat #1424572) at 100,000 cells/well in 50 μL of DPBS added with Zombie Violet viability stain (Biolegend Cat #423114, diluted at 1:500). From this step on, cells were protected from light. Cells were kept at room temperature for 10 min and pelleted down at 300 g for 5 minutes at 4° C. Supernatants containing Zombie Violet were discarded, and without washing, 30 uL of antibodies diluted in the flow wash buffer (FWB, DPBS plus 2% FBS and 0.1% sodium azide to inhibit receptor internalization) were added to the cells. For a-NRP2 staining on Cyno NRP2-transfected Expi293 cells, in-house human anti-NRP2 antibodies were tested at final concentrations of 0.006-100 nM at 4-fold dilutions. For each test, NRP2 over-expression on the cell surface was validated by a-NRP2 staining (10 μg/mL R&D #AF567 a-NRP2) in separate wells. Binding was allowed to proceed on ice for 40-60 minutes. Cells were then pelleted at 300 g for 5 minutes at 4° C., supernatants removed, and cells washed twice by adding 150 μL of FWB and centrifuging the cells again in the same conditions. To detect a-NRP2 binding on the cell surface, Cy3-conjugated goat anti-human IgG Fc or AF647-conjugated donkey anti-goat IgG (Jackson ImmunoResearch Cat #109165098 & 705605147) was added to the cells at a final concentration of 3 μg/mL in 30 μL of FWB. After 30-40 minutes of incubation on ice, cells were pelleted at 300 g for 5 minutes at 4° C. and supernatants removed, and the cells were washed twice as described previously. […] Cells were then analyzed on FlowJo analysis software by excluding dead cells and gating singlets.
The EC₅₀ of three anti-NRP2 antibodies, each against a distinct domain of NRP2, were measured for binding to Cyno NRP2-transfected Expi293 cells (see Table E2 and FIG. 4).
(In flow cytometry, cells or beads pass a laser one at a time.)

In test [2] the target is T2, Cynomolgus NRP2 (aa23-854) with C-terminal Fc-tag (cynomolgus monkey).
T2 construct: range 23-854; sensorgrams fitted to a bivalent analyte model; also called Cynomolgus NRP2 antigen protein
In words: SPR (ProteOn XPR36), antibody captured on anti-human Fab-kappa, cyno NRP2-Fc as analyte, bivalent analyte fit. How it is done: Anti-NRP2 antibody binding and affinity measurements. […] SPR experiments were conducted on a Bio-Rad ProteOn XPR36 Protein Interaction Array instrument. Biotinylated anti-human antibody (ThermoFisher Cat #7103302100) was immobilized on ProteOn NLC sensor chips. Anti-NRP2 antibodies were subsequently flowed over and captured by the anti-human antibody. Cynomolgus NRP2 antigen protein was flowed over the captured antibody at varying concentrations (150, 50, 16.67, 5.56, 1.85 nM). The sensor chip surface was regenerated between each analyte run to remove anti-NRP2 antibodies and NRP2 protein. Data was double referenced against a surface with no anti-NRP2 antibody captured (immobilized anti-human antibody only) and a buffer only blank. Affinity constants were derived by globally fitting sensograms to a bivalent analyte interaction model in the ProteOn manager software. For each anti-NRP2 antibody, data from the multiple NRP2 concentrations was fit as a single data set with dissociation rate constant (kd), association rate constant (kₐ) and Rₘₐₓ values as global parameters. The reported binding affinity is the equilibrium dissociation constant (KD) calculated from kd/kₐ. [0681] Running buffer: 50 mM HEPES, 300 mM NaCl, 5 mM CaCl₂, 0.005% Tween-20, pH 7.4 [0682] Immobilized antibody: CaptureSelect Human Fab-kappa Kinetics Biotin Conjugate, Thermo Fisher Cat #7103302100 [0683] Antigen: Cynomolgus NRP2 (aa23-854) with C-terminal Fc-tag [0684] Regeneration buffer: 10 mM glycine pH 2.0

Test [3] concerns the target T3, mouse NRP2 I407V on transfected Expi293 cells (Mouse, UniProt O35375 21-931).
T3 construct: whole, on cells
T3 sequence (looked up): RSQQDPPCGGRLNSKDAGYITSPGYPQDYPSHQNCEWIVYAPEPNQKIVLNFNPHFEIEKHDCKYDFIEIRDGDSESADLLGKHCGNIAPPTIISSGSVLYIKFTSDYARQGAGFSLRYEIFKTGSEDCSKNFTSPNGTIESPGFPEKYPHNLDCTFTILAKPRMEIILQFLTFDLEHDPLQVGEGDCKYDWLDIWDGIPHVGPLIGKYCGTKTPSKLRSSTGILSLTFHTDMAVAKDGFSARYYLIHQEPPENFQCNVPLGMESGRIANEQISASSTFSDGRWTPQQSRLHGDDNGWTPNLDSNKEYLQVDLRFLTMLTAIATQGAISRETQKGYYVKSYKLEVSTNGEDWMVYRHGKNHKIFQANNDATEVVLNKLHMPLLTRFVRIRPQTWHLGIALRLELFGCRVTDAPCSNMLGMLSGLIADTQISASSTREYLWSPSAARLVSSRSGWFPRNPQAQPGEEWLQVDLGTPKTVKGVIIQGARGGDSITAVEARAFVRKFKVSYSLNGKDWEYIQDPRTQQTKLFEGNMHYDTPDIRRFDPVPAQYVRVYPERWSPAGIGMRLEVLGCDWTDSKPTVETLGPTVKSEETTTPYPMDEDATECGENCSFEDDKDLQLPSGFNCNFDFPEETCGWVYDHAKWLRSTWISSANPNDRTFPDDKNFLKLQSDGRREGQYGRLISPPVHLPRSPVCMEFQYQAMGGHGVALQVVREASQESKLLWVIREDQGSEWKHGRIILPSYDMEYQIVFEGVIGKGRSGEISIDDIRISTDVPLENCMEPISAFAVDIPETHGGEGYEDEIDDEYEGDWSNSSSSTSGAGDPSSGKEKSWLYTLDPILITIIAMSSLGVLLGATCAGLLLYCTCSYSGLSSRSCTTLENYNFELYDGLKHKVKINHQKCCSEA
Description: flow cytometry, aNRP2-10v10 at 10 nM on transfected Expi293 cells gated on live, single, NRP2 expressing cells [panel 11B]. The procedure:
FIGS. 11A-11B show the measurement of antibody binding to Expi293 cells over-expressing NRP2. […] Gating for NRP2 over-expressing cells is shown.
Human NRP2a (version 2; see Table N1) and mouse NRP2v2 cDNAs were obtained from Origene. […] Human and mouse NRP2, expression vectors, along with expression vectors encoding all 6 mutants were transfected into Expi293 cells at 1 million cells/mL, by standard techniques. Approximately 40 hours post transfection cells were co-stained with aNRP2-10v10, and a species agnostic anti-NRP2 a1 specific binding antibody.

B1: aNRP2-10v10 (antibody, V domains shown)
VH: EVQLVQSGAEVKKPGATVKISCKVSGFNIKDYYVHWVQQAPGKGLEWMGRIDVEDDETKYAPKFQGRVTITADTSTDTAYMELSSLRSEDTAVYYCATPIYGAREAWFAYWGQGTLVTVSS
VL: DIQMTQSPSSLSASVGDRVTITCTASSSVSSSYLHWYQQKPGKAPKLLIYRTSNLASGVPSRFSGSGSGTDFTLTISSLQPEDFATYYCHQYYRSPPTFGGGTKVEIK
By EC50 is commonly meant the concentration that produces a half-maximal response. With B1, in test [1], it took 2.9 nM to reach a half-maximal effect (EC50). Moreover, in test [2], the Kd is 0.032 nM. For the same molecule, the binding result in test [3] was “no binding (tested: 10 nM)”.
